Tests used:
[1] = system: HeLa Kyoto; assay: solubility in G1/S (NP-40 vs SDS abundance) (log2 ratio); higher = more soluble; conditions: cell cycle stage: G1/S
[2] = system: HeLa Kyoto; assay: thermal stability score vs G1/S (z-score of summed log2 fold changes over temperatures); higher = more thermally stable than in G1/S
[3] = system: HeLa Kyoto; assay: melting temperature (median over replicates), in situ; higher = more thermally stable
[4] = system: HeLa Kyoto; assay: solubility change mitosis vs G1/S (difference of NP-40 vs SDS log2 ratios) (log2 ratio difference); higher = more soluble in mitosis
[5] = cell cycle stage: early G1 (4.5 h after nocodazole release)
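For melting temperature (median over replicates), in situ in this document: HeLa Kyoto cells synchronized by double thymidine or nocodazole block, proteins quantified by TMT10plex mass spectrometry, three independent biological replicates.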
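For solubility change mitosis vs G1/S (difference of NP-40 vs SDS log2 ratios) in this document: synchronized HeLa Kyoto cells (double thymidine block for G1/S, nocodazole release for mitosis), protein amounts in NP-40 versus SDS lysates quantified by mass spectrometry, three biological replicates.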
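For solubility in G1/S (NP-40 vs SDS abundance) in this document: HeLa Kyoto cells arrested at G1/S by double thymidine block, proteins quantified by TMT10plex mass spectrometry in mild NP-40 versus SDS extracts, three biological replicates.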
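For thermal stability score vs G1/S (z-score of summed log2 fold changes over temperatures) in this document: synchronized HeLa Kyoto cells, proteins quantified by TMT10plex mass spectrometry, three biological replicates, mitosis taken 0.5 h after nocodazole release, G1/S directly after double thymidine block.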

Sequence	solubility in G1/S (log2) [1]	thermal stability score [2, 5]	thermal stability score ([2]; cell cycle stage: mitosis)	melting temperature ([3]; cell cycle stage: G1/S) [°C]	melting temperature ([3]; cell cycle stage: mitosis) [°C]	solubility change mitosis (log2) [4]
MAGPGPGPGDPDEQYDFLFKLVLVGDASVGKTCVVQRFKTGAFSERQGSTIGVDFTMKTLEIQGKRVKLQIWDTAGQERFRTITQSYYRSANGAILAYDITKRSSFLSVPHWIEDVRKYAGSNIVQLLIGNKSDLSELREVSLAEAQSLAEHYDILCAIETSAKDSSNVEEAFLRVATELIMRHGGPLFSEKSPDHIQLNSKDIGEGWGCGC [RAB43]	-0.224	-0.0567	0.366	55.1	54.6	0.296
MAGQGLPLHVATLLTGLLECLGFAGVLFGWPSLVFVFKNEDYFKDLCGPDAGPIGNATGQADCKAQDERFSLIFTLGSFMNNFMTFPTGYIFDRFKTTVARLIAIFFYTTATLIIAFTSAGSAVLLFLAMPMLTIGGILFLITNLQIGNLFGQHRSTIITLYNGAFDSSSAVFLIIKLLYEKGISLRASFIFISVCSTWHVARTFLLMPRGHIPYPLPPNYSYGLCPGNGTTKEEKETAEHENRELQSKEFLSAKEETPGAGQKQELRSFWSYAFSRRFAWHLVWLSVIQLWHYLFIGTLNSLLTNMAGGDMARVSTYTNAFAFTQFGVLCAPWNGLLMDRLKQKYQKEARKTGSSTLAVALCSTVPSLALTSLLCLGFALCASVPILPLQYLTFILQVISRSFLYGSNAAFLTLAFPSEHFGKLFGLVMALSAVVSLLQFPIFTLIKGSLQNDPFYVNVMFMLAILLTFFHPFLVYRECRTWKESPSAIA [SLC43A3]	0.205	-0.857	-2.36	58.3	58.2	-0.114
MAGYLRVVRSLCRASGSRPAWAPAALTAPTSQEQPRRHYADKRIKVAKPVVEMDGDEMTRIIWQFIKEKLILPHVDIQLKYFDLGLPNRDQTDDQVTIDSALATQKYSVAVKCATITPDEARVEEFKLKKMWKSPNGTIRNILGGTVFREPIICKNIPRLVPGWTKPITIGRHAHGDQYKATDFVADRAGTFKMVFTPKDGSGVKEWEVYNFPAGGVGMGMYNTDESISGFAHSCFQYAIQKKWPLYMSTKNTILKAYDGRFKDIFQEIFDKHYKTDFDKNKIWYEHRLIDDMVAQVLKSSGGFVWACKNYDGDVQSDILAQGFGSLGLMTSVLVCPDGKTIEAEAAHGTVTRHYREHQKGRPTSTNPIASIFAWTRGLEHRGKLDGNQDLIRFAQMLEKVCVETVESGAMTKDLAGCIHGLSNVKLNEHFLNTTDFLDTIKSNLDRALGRQ [IDH2]	0.137	-0.161	0.659	53.7	54.1	-0.113
MAILFAVVARGTTILAKHAWCGGNFLEVTEQILAKIPSENNKLTYSHGNYLFHYICQDRIVYLCITDDDFERSRAFNFLNEIKKRFQTTYGSRAQTALPYAMNSEFSSVLAAQLKHHSENKGLDKVMETQAQVDELKGIMVRNIDLVAQRGERLELLIDKTENLVDSSVTFKTTSRNLARAMCMKNLKLTIIIIIVSIVFIYIIVSPLCGGFTWPSCVKK [VAMP7]	-0.0498	1.62	1.41	54.4	53.1	-0.283
MAKAKKVGARRKASGAPAGARGGPAKANSNPFEVKVNRQKFQILGRKTRHDVGLPGVSRARALRKRTQTLLKEYKERDKSNVFRDKRFGEYNSNMSPEEKMMKRFALEQQRHHEKKSIYNLNEDEELTHYGQSLADIEKHNDIVDSDSDAEDRGTLSAELTAAHFGGGGGLLHKKTQQEGEEREKPKSRKELIEELIAKSKQEKRERQAQREDALELTEKLDQDWKEIQTLLSHKTPKSENRDKKEKPKPDAYDMMVRELGFEMKAQPSNRMKTEAELAKEEQEHLRKLEAERLRRMLGKDEDENVKKPKHMSADDLNDGFVLDKDDRRLLSYKDGKMNVEEDVQEEQSKEASDPESNEEEGDSSGGEDTEESDSPDSHLDLESNVESEEENEKPAKEQRQTPGKGLISGKERAGKATRDELPYTFAAPESYEELRSLLLGRSMEEQLLVVERIQKCNHPSLAEGNKAKLEKLFGFLLEYVGDLATDDPPDLTVIDKLVVHLYHLCQMFPESASDAIKFVLRDAMHEMEEMIETKGRAALPGLDVLIYLKITGLLFPTSDFWHPVVTPALVCLSQLLTKCPILSLQDVVKGLFVCCLFLEYVALSQRFIPELINFLLGILYIATPNKASQGSTLVHPFRALGKNSELLVVSAREDVATWQQSSLSLRWASRLRAPTSTEANHIRLSCLAVGLALLKRCVLMYGSLPSFHAIMGPLQALLTDHLADCSHPQELQELCQSTLTEMESQKQLCRPLTCEKSKPVPLKLFTPRLVKVLEFGRKQGSSKEEQERKRLIHKHKREFKGAVREIRKDNQFLARMQLSEIMERDAERKRKVKQLFNSLATQEGEWKALKRKKFKK [NOP14]	-1.66	0.586	1.66	49.2	50.4	0.737
MAKKTYDLLFKLLLIGDSGVGKTCVLFRFSDDAFNTTFISTIGIDFKIKTVELQGKKIKLQIWDTAGQERFHTITTSYYRGAMGIMLVYDITNGKSFENISKWLRNIDEHANEDVERMLLGNKCDMDDKRVVPKGKGEQIAREHGIRFFETSAKANINIEKAFLTLAEDILRKTPVKEPNSENVDISSGGGVTGWKSKCC [RAB10]	-0.153	-0.265	-1.23	57.5	56.5	-0.146
MAKPSHSSYVLQQLNNQREWGFLCDCCIAIDDIYFQAHKAVLAACSSYFRMFFMNHQHSTAQLNLSNMKISAECFDLILQFMYLGKIMTAPSSFEQFKVAMNYLQLYNVPDCLEDIQDADCSSSKCSSSASSKQNSKMIFGVRMYEDTVARNGNEANRWCAEPSSTVNTPHNREADEESLQLGNFPEPLFDVCKKSSVSKLSTPKERVSRRFGRSFTCDSCGFGFSCEKLLDEHVLTCTNRHLYQNTRSYHRIVDIRDGKDSNIKAEFGEKDSSKTFSAQTDKYRGDTSQAADDSASTTGSRKSSTVESEIASEEKSRAAERKRIIIKMEPEDIPTDELKDFNIIKVTDKDCNESTDNDELEDEPEEPFYRYYVEEDVSIKKSGRKTLKPRMSVSADERGGLENMRPPNNSSPVQEDAENASCELCGLTITEEDLSSHYLAKHIENICACGKCGQILVKGRQLQEHAQRCGEPQDLTMNGLGNTEEKMDLEENPDEQSEIRDMFVEMLDDFRDNHYQINSIQKKQLFKHSACPFRCPNCGQRFETENLVVEHMSSCLDQDMFKSAIMEENERDHRRKHFCNLCGKGFYQRCHLREHYTVHTKEKQFVCQTCGKQFLRERQLRLHNDMHKGMARYVCSICDQGNFRKHDHVRHMISHLSAGETICQVCFQIFPNNEQLEQHMDVHLYTCGICGAKFNLRKDMRSHYNAKHLKRT [ZBTB1]	-0.369	2	3.65		51	-0.0122
MAKTYDYLFKLLLIGDSGVGKTCVLFRFSEDAFNSTFISTIGIDFKIRTIELDGKRIKLQIWDTAGQERFRTITTAYYRGAMGIMLVYDITNEKSFDNIRNWIRNIEEHASADVEKMILGNKCDVNDKRQVSKERGEKLALDYGIKFMETSAKANINVENAFFTLARDIKAKMDKKLEGNSPQGSNQGVKITPDQQKRSSFFRCVLL [RAB8A]	-0.0996	2.59	1.39	56.7	55.4	-0.103
MALAARLWRLLPFRRGAAPGSRLPAGTSGSRGHCGPCRFRGFEVMGNPGTFKRGLLLSALSYLGFETYQVISQAAVVHATAKVEEILEQADYLYESGETEKLYQLLTQYKESEDAELLWRLARASRDVAQLSRTSEEEKKLLVYEALEYAKRALEKNESSFASHKWYAICLSDVGDYEGIKAKIANAYIIKEHFEKAIELNPKDATSIHLMGIWCYTFAEMPWYQRRIAKMLFATPPSSTYEKALGYFHRAEQVDPNFYSKNLLLLGKTYLKLHNKKLAAFWLMKAKDYPAHTEEDKQIQTEAAQLLTSFSEKN [RMDN1]	0.16	-0.229	-1.17	52	52.9	0.0519
MALASVLERPLPVNQRGFFGLGGRADLLDLGPGSLSDGLSLAAPGWGVPEEPGIEMLHGTTTLAFKFRHGVIVAADSRATAGAYIASQTVKKVIEINPYLLGTMAGGAADCSFWERLLARQCRIYELRNKERISVAAASKLLANMVYQYKGMGLSMGTMICGWDKRGPGLYYVDSEGNRISGATFSVGSGSVYAYGVMDRGYSYDLEVEQAYDLARRAIYQATYRDAYSGGAVNLYHVREDGWIRVSSDNVADLHEKYSGSTP [PSMB5]	-0.00915	-2.01	-3.9	63.3	61.5	-0.142
MALDFLAGCAGGVAGVLVGHPFDTVKVRLQVQSVEKPQYRGTLHCFKSIIKQESVLGLYKGLGSPLMGLTFINALVFGVQGNTLRALGHDSPLNQFLAGAAAGAIQCVICCPMELAKTRLQLQDAGPARTYKGSLDCLAQIYGHEGLRGVNRGMVSTLLRETPSFGVYFLTYDALTRALGCEPGDRLLVPKLLLAGGTSGIVSWLSTYPVDVVKSRLQADGLRGAPRYRGILDCVHQSYRAEGWRVFTRGLASTLLRAFPVNAATFATVTVVLTYARGEEAGPEGEAVPAAPAGPALAQPSSL [SLC25A29]	0.0296	-0.402	-0.997	53.2	52.3	-0.0388
MALKMVKGSIDRMFDKNLQDLVRGIRNHKEDEAKYISQCIDEIKQELKQDNIAVKANAVCKLTYLQMLGYDISWAAFNIIEVMSASKFTFKRIGYLAASQSFHEGTDVIMLTTNQIRKDLSSPSQYDTGVALTGLSCFVTPDLARDLANDIMTLMSHTKPYIRKKAVLIMYKVFLKYPESLRPAFPRLKEKLEDPDPGVQSAAVNVICELARRNPKNYLSLAPLFFKLMTSSTNNWVLIKIIKLFGALTPLEPRLGKKLIEPLTNLIHSTSAMSLLYECVNTVIAVLISLSSGMPNHSASIQLCVQKLRILIEDSDQNLKYLGLLAMSKILKTHPKSVQSHKDLILQCLDDKDESIRLRALDLLYGMVSKKNLMEIVKKLMTHVDKAEGTTYRDELLTKIIDICSQSNYQYITNFEWYISILVELTRLEGTRHGHLIAAQMLDVAIRVKAIRKFAVSQMSALLDSAHLLASSTQRNGICEVLYAAAWICGEFSEHLQEPHHTLEAMLRPRVTTLPGHIQAVYVQNVVKLYASILQQKEQAGEAEGAQAVTQLMVDRLPQFVQSADLEVQERASCILQLVKHIQKLQAKDVPVAEEVSALFAGELNPVAPKAQKKVPVPEGLDLDAWINEPLSDSESEDERPRAVFHEEEQRRPKHRPSEADEEELARRREARKQEQANNPFYIKSSPSPQKRYQDTPGVEHIPVVQIDLSVPLKVPGLPMSDQYVKLEEERRHRQKLEKDKRRKKRKEKEKKGKRRHSSLPTESDEDIAPAQQVDIVTEEMPENALPSDEDDKDPNDPYRALDIDLDKPLADSEKLPIQKHRNTETSKSPEKDVPMVEKKSKKPKKKEKKHKEKERDKEKKKEKEKKKSPKPKKKKHRKEKEERTKGKKKSKKQPPGSEEAAGEPVQNGAPEEEQLPPESSYSLLAENSYVKMTCDIRGSLQEDSQVTVAIVLENRSSSILKGMELSVLDSLNARMARPQGSSVHDGVPVPFQLPPGVSNEAQYVFTIQSIVMAQKLKGTLSFIAKNDEGATHEKLDFRLHFSCSSYLITTPCYSDAFAKLLESGDLSMSSIKVDGIRMSFQNLLAKICFHHHFSVVERVDSCASMYSRSIQGHHVCLLVKKGENSVSVDGKCSDSTLLSNLLEEMKATLAKC [AP3D1]	-0.378	-1.02	-1.46	50.8	50.6	-0.178
MALKQEMAKSLLKTASLSGRTKLLHQTGLSLYSTSHGFYEEEVKKTLQQFPGGSIDLQKEDNGIGILTLNNPSRMNAFSGVMMLQLLEKVIELENWTEGKGLIVRGAKNTFSSGSDLNAVKSLGTPEDGMAVCMFMQNTLTRFMRLPLISVALVQGWALGGGAEFTTACDFRLMTPESKIRFVHKEMGIIPSWGGTTRLVEIIGSRQALKVLSGALKLDSKNALNIGMVEEVLQSSDETKSLEEAQEWLKQFIQGPPEVIRALKKSVCSGRELYLEEALQNERDLLGTVWGGPANLEAIAKKGKFNK [ECHDC1]	0.284	-1.01	-1.18	56.5	58.1	-0.0468

Reference: the supplement of paper PMC5998384
